In the nanobody polyreactivity screen of Harvey et al. (2022):

Test: yeast display, Sf9 membrane polyspecificity reagent, FACS + sequencing; frameworks hold sequencing errors
Procedure, shortened: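 Sorting gates, low and high (top ~1%), were placed on anti-HA fluorescence to track expression and on streptavidin fluorescence to track reagent binding. A clone's polyreactivity label is taken from the gate it came out of. The reagent was 10% biotinylated, detergent-solubilized Sf9 membrane, applied for 1 hour at 4 °C to galactose-induced yeast display cells.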

**Q.** For “QVQLVESGGGLVQAGGSLRLSCASSGRTVGYNAMGWSRQPPGKEREFVAAITWSGGRTYYADSVKGRFTISRDNAKNTVYLLMNSLKPEDTAVYYCAIDGYWDFDYWGQGTQVSVSS”, which “polyreactivity (PSR sort gate)” value is on record?
**A.** low polyreactivity

**Q.** For “QVQLVESGGGLVQAGGSLRLSCASSGSIFAWNAMGWYRQTPGKERELVAAINSGGGTYYADSVKGRFTISRDNAKNTVYSQMNSLIPEDTAVYYCAAGRLSHRYRYNYWGQGTQVTVSS”, which “polyreactivity (PSR sort gate)” value is on record?
**A.** high polyreactivity

**Q.** For “QVQLVESGGGLVQAGGSLRLSCASSGSIFFANAIGWYRQAPGKERELVATISWRGGSTYYAYSVKGRFTISRDIAKNSVYLQKNSLKPEDTAVYYCAAGYYPYWGQGTQLTVSS”, which “polyreactivity (PSR sort gate)” value is on record?
**A.** low polyreactivity

**Q.** With “QVQLVESGGGLVQAGGSLRLSCASSGSIFFEYAMVWYRQAPGKERELDASINRGGGSTYYADSVKGRFTISRDNAKNTVYLQMNSLKPEDTAVYYCAAQWKYRQSYLDYYWGQGTQVTVSS” as the sequence, how does the “polyreactivity (PSR sort gate)” value read?
**A.** low polyreactivity

**Q.** Which “polyreactivity (PSR sort gate)” value does the source give for “QVQLVESGGGLVQAGGSLRLSCASSGSIFFLYAMGWYRQAPGKERELVAAITGSGSRTYYADSVKGRFTISRDNEKNTVYLHMNSLKPEYTAVYYCAARYYGAYGKQPRARYGYWGKGTQVTVSS” here?
**A.** high polyreactivity

**Q.** With “QVQLVESGGGLVQAGGSLRLSCASSGSIFGAYAMGWYRQAPGKERELVAAITSVGSTYYADSVKGRFTISRDNAKNTVYVQMNSLIPEDTAVYYCAKRQWRPTYRYGYWGQGTQVTVSS” as the sequence, how does the “polyreactivity (PSR sort gate)” value read?
**A.** low polyreactivity

**Q.** With “QVQLVESGGGLVQAGGSLRLSCASSGSIFGGYAMGWYRQAPGKERELVAAITSSGGLTYYADSVKGRFTISRDNAKNTVYLQMNCLKPEDTAVYYCAAVTVAGYDYWGQGTQVTVSS” as the sequence, how does the “polyreactivity (PSR sort gate)” value read?
**A.** high polyreactivity

**Q.** For “QVQLVESGGGLVQAGGSLRLSCASSGSIFLINAMGWYRQAPGKERELVAAISRSGGRTYYADSVKGRFTISRDNAKNTVYLQMNSLKPEDTAVYYCAVPSIYYAGRAYDYWGQGTQVTVSS”, which “polyreactivity (PSR sort gate)” value is on record?
**A.** high polyreactivity

**Q.** For “QVQLVESGGGLVQAGGSLRLSCASSGSIFPRYAMGSYRPAPGKERELVAAISQSGGRTYYADSVKGRFTISRDNAKNTVYLQMNSMKPEDTAVYYCAALVSGEYDYWGQGTQVTVSS”, which “polyreactivity (PSR sort gate)” value is on record?
**A.** high polyreactivity

**Q.** For “QVQLVESGGGLVQAGGSLRLSCASSGSIFSTYAMGWYRQAPGKEMELVATIRRGGSTYYADSVKGPFTISRDNAKNTVYLQMNSLKPEDTELYYCAAAGGRFIRYGYWGQGTQVTVSS”, which “polyreactivity (PSR sort gate)” value is on record?
**A.** high polyreactivity

**Q.** With “QVQLVESGGGLVQAGGSLRLSCASSGSIFSYNAMGWYRQAPGKERELVAAITRSGGSTYYADSVKGRFTISRDNAKNTVYLQMNSLKPEDTAVYYCAVYLPYSQRYVHYYYWGQGTQVTVSS” as the sequence, how does the “polyreactivity (PSR sort gate)” value read?
**A.** high polyreactivity

**Q.** For “QVQLVESGGGLVQAGGSLRLSCASSGSIFVHNDMGWYRQAPGKERELVARINTGGGTNYADSVKGRFTISRDNSKNTVYLQMNRLKPEDRAVYYCAAVLFVFYDEYGYWEYFSQYDYWGQGTKVTVSS”, which “polyreactivity (PSR sort gate)” value is on record?
**A.** low polyreactivity

**Q.** For “QVQLVESGGGLVQAGGSLRLSCASSGSILTSYAMGWYRQAPRKERELVASIDWSAGTTYYADSVKGRFTISRDNAKNTVYLQMNSLKPEDTAVYYCGKLEFLSGYPYRPEYGSWGQGTQVTVSS”, which “polyreactivity (PSR sort gate)” value is on record?
**A.** low polyreactivity

**Q.** For “QVQLVESGGGLVQAGGSLRLSCASSGSNVYIYAMGWYRQAPGKERELVAAISSAGSTYYADSVKGRFTISRDNAKNTVYLQMNSLKPEDTAVYYCAARAQYPGWRYNYWGQGTQVTVSS”, which “polyreactivity (PSR sort gate)” value is on record?
**A.** high polyreactivity

**Q.** With “QVQLVESGGGLVQAGGSLRLSCASSGSTFHDYAMGWYRQAPGKERELVAAISNSGGSTYYADSVKGRFTISRDNAKNTVYLQMNSLKPEDTAVYYCAADGRWYWDYEYWGQGTQVTVSS” as the sequence, how does the “polyreactivity (PSR sort gate)” value read?
**A.** low polyreactivity

**Q.** Which “polyreactivity (PSR sort gate)” value does the source give for “QVQLVESGGGLVQAGGSLRLSCASSGSTFLRNAMGWYRHAPRKERELVAAFSLGSGSTYYADSVKGRFTISRDNAKNTVYLQMNSLKPEDTAVYYCAADVSRWLDYGYDYWGQGTQVTVSS” here?
**A.** low polyreactivity

**Q.** With “QVQLVESGGGLVQAGGSLRLSCASSGSTFPPYAMGWYRQAPGKERELVAAISYRDTGTYYADSVKGRFTISRDNAKNTVYFQMNSLKPEDTAVYYCAADYHIVYYFLYYYWGQGTQVTVSS” as the sequence, how does the “polyreactivity (PSR sort gate)” value read?
**A.** low polyreactivity
